doi:10.1101/2025.06.10.658938 (bioRxiv, 2025)
Values belong to the binder of their own block, whether it stands above or below them.

Key:
Test in all cases: split reporter
[1] = target: sphingosine 1-phosphate receptor 1 (S1PR1), smBit-tagged Target construct (UniProt P21453 1-347)
[2] = target: T1, calcitonin-like receptor (CLR), smBit-tagged Target construct (UniProt Q16602 23-461)
[3] = target: T1, calcitonin-like receptor (CLR), …; remark: listed apart in the source

T1 sequence (Q16602 23-461): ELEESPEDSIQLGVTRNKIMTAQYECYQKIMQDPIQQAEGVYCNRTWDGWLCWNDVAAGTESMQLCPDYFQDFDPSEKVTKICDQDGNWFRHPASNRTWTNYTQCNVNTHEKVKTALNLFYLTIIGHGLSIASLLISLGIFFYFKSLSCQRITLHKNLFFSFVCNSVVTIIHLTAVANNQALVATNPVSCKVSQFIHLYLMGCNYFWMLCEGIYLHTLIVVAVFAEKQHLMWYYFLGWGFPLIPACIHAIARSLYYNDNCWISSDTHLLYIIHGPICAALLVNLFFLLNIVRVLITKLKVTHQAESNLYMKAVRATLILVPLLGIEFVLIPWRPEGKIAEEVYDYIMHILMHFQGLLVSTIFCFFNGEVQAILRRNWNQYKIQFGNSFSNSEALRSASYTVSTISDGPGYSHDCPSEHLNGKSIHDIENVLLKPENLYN
Chain of sphingosine 1-phosphate receptor 1 (S1PR1), smBit-tagged Target construct (P21453 1-347): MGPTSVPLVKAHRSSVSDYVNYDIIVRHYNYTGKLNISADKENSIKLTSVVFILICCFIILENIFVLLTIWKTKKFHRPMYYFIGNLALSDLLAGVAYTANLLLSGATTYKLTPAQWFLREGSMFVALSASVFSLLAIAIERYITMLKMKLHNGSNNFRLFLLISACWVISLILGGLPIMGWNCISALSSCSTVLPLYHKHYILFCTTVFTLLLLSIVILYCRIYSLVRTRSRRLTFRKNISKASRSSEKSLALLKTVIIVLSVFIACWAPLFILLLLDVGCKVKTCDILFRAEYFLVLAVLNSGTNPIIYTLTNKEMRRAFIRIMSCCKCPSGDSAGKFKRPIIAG

percent decrease of expression-normalised NanoBit relative to WT CD69 [1]: 30%
B1: CD69 V48F, V49F double mutant, LgBit-tagged Binder construct (natural protein)
chain: SENCFVAENSSLHPESGQENDATSPHFSTRHEGSFQVPVLCAVMNFFFITILIIALIALSVGQYNCPGQYTFSMPSDSHVSSCSEDWVGYQRKCYFISTVKRSWTSAQNACSEHGATLAVIDSEKDMNFLKRYAGREEHWVGLKKEPGHPWKWSNGKEFNNWFNVTGSDKCVFLKNTEVSSMECEKNLYWICNKPYK

fold reduction of expression-normalised NanoBit relative to WT CLR-RAMP1 [2]: 2 fold
Binder: LYPFIVVPITVTLLVTALVVWQSKRTEGIV (domain or fragment, UniProt O60894 119-148, looked up) [HALO-RAMP1-TM, LgBit-tagged Binder chimera]

fold reduction of expression-normalised NanoBit relative to WT CLR-RAMP1 [2]: 2 fold
Binder: LYPFIVVPITVTLLVTALVVWQSKRTEGIV (domain or fragment, UniProt O60894 119-148, looked up) [InnTag5-RAMP1-TM, LgBit-tagged Binder chimera]

fold change of expression-normalised NanoBit over CLR+CD8a (1 ng Binder DNA) [2]: 2.7 ± 0.2 fold
fold change of expression-normalised NanoBit over CLR+CD8a (5 ng Binder DNA) [2]: 2.9 ± 0.1 fold
fold change of expression-normalised NanoBit over CLR+CD8a (10 ng Binder DNA) [2]: 2.7 ± 0.1 fold
fold change of expression-normalised NanoBit over CLR+CD8a (20 ng Binder DNA) [2]: 2.1 ± 0.1 fold
fold change of NanoBit luminescence over CLR+CD8a (1 ng Binder DNA) [3]: 13 ± 1.45 fold
fold change of NanoBit luminescence over CLR+CD8a (20 ng Binder DNA) [3]: 2.16 ± 0.04 fold
B2: receptor activity-modifying protein 1 (RAMP1), LgBit-tagged Binder construct (natural protein)
chain: CQEANYGALLRELCLTQFQVDMEAVGETLWCDWGRTIRSYRELADCTWHMAEKLGCFWPNAEVDRFFLAVHGRYFRSCPISGRAVRDPPGSILYPFIVVPITVTLLVTALVVWQSKRTEGIV
